# Results reported in US6936457.
# B1: α-bungarotoxin, P60615 22-95 (peptide)
# chain: IVCHTTATSPISAVTCPPGENLCYRKMWCDAFCSSRGKVVELGCAATCPSKKPYEEVTCCSTDKCNPHPKQRPG
# modifications: not checked
# Target: human neuronal nicotinic acetylcholine receptor α7 subunit (human), P36544
# Sequence (P36544 23-502 limits assumed): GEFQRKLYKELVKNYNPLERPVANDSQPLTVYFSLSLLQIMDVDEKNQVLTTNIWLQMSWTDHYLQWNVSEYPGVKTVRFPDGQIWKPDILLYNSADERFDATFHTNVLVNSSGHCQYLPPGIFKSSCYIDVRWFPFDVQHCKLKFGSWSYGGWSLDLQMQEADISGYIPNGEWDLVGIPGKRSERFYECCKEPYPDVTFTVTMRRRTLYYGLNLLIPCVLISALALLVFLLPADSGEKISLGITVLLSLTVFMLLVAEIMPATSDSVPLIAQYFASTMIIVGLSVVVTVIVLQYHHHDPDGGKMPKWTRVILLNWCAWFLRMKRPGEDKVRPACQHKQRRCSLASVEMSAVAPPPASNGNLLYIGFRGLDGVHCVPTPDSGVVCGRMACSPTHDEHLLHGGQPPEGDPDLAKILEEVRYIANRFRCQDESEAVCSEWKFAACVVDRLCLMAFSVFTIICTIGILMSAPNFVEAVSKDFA
binder,measurement,value
B1,IC50,3 nM
same,percent of [3H]-MLA binding displaced,65%
